Measured values: patent US20060177432A1

Key:
Assay in all cases: cell-based or functional assay
chymotrypsin = biological target: chymotrypsin
neuropsin = biological target: neuropsin
human α-thrombin (human) = human α-thrombin (human) (UniProt P00734)

inhibition of amidolytic activity (chromogenic substrate, 405 nm) (chymotrypsin): 25% | inhibition of amidolytic activity (chromogenic substrate, 405 nm) (neuropsin): 70% | inhibition of amidolytic activity (chromogenic substrate, 405 nm) (human α-thrombin (human)): 55%
Substance: 6xHis-PEBP (recombinant mouse PEBP with a 6xHis-tag at the N-terminus) (from UniProt P70296 2-187)
